How the values were obtained:
[1] = molecular target: Pks4 SAT(C117A)-KS-MAT tridomain; assay: cross-linking
[2] = molecular target: Pks4 SAT(C117A)-KS-MAT tridomain; assay: ITC

Substance | stoichiometry N (ACP monomers per S0KM dimer) [1] | Kd [2] [µM]
Pks4 ACP loaded with a pantetheine crosslinker (crypto-ACP) (domain or fragment) | 2 | 
Pks4 apo-ACP (stand-alone ACP domain of Pks4) (domain or fragment) |  | 15
PksA apo-ACP (stand-alone ACP domain of PksA) (domain or fragment) |  | 30

From paper PMC3796367
